Experimental data: US20230227526A1 (published 2023)

Target: T1, COL6A3 (peptide named COL6A3-642) peptide on HLA-A*02:01 (human)
T1 peptide: FLLDGSANV
Assay: multimer staining

binding result: recognises
B1: COL6A3-642 C4 TCR (TRAV1-2*01F-TRBV9*01F) (TCR, V domains shown)
Valpha: GQNIDQPTEMTATEGAIVQINCTYQTSGFNGLFWYQQHAGEAPTFLSYNVLDGLEEKGRFSSFLSRSKGYSYLLLKELQMKDSASYLCAVRADRGSTLGRLYFGRGTQLTVWP
Vbeta: DSGVTQTPKHLITATGQRVTLRCSPRSGDLSVYWYQQSLDQGLQFLIQYYNGEERAKGNILERFSAQQFPDLHSELNLSSLELGDSALYFCASSVDGGASGEQFFGPGTRLTVL
